Literature values as cited in publication PMC3359799.
Read-outs that look alike come from different tables or passages of the source.

Tests used:
[1] = molecular target: Exendin-4 (Heloderma suspectum) (UniProt P26349)
GLP-1 (Homo sapiens) [2] = molecular target: GLP-1 (Homo sapiens) (UniProt P01275)
[3] = molecular target: Exendin-4 (Heloderma suspectum) (UniProt P26349); remark: listed apart in the source
[4] = molecular target: Exendin-4 (Heloderma suspectum) (UniProt P26349); experiment: surface plasmon resonance
GLP-1 (Homo sapiens) [5] = molecular target: GLP-1 (Homo sapiens) (UniProt P01275); remark: listed apart in the source
GLP-1 (Homo sapiens) [6] = molecular target: GLP-1 (Homo sapiens) (UniProt P01275); remark: listed apart in the source

UniProt P01275, sequence (P01275 98-127): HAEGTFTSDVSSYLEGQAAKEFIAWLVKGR
UniProt P26349, sequence (P26349 48-86): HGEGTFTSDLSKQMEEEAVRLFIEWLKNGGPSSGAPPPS

Substance	Kd [1]	Kd (GLP-1 (Homo sapiens) [2])	Kd [3]	Kd [4]	Kd (GLP-1 (Homo sapiens) [5])	Kd (GLP-1 (Homo sapiens) [6])
GLP-1 receptor (from UniProt P43220)	0.1 nM	0.3 nM				
GLP-1 receptor ECD (from UniProt P43220)			13 nM	900 nM	800 nM	1000 nM
